Experimental data published in patent US20230220399.
Where two headings read alike, the source gives them in different places.

Experiments:
[1] = molecular target: PD-L1 (B7-H1) (Homo sapiens) (UniProt Q9NZQ7); settings: ELISA, SB18, 37 C
[2] = molecular target: human serum albumin (HSA) (Homo sapiens) (UniProt P02768); settings: ELISA, SB18, 37 C
KRAS G12D G12D, P01116-2 = settings: ELISA, SB18, 37 C
[3] = molecular target: 4-1BB (TNFRSF9) (Homo sapiens) (UniProt Q07011); settings: Nap-dU at n (6) positions [Nap-dU at 16,18,20,27,32,33,34,40,42,44,46,54]; ELISA, SB18 buffer (5 mM MgCl2), 37 C
[4] = molecular target: CD3 delta/epsilon heterodimer (UniProt P04234+P07766); settings: ELISA, SB18, 37 C
[5] = Nap-dU at n (6) positions [Nap-dU at 18,22,26,34,36,39,42,43,46,52,57]
[6] = Nap-dU at n (6) positions [9,14,18,24,31,32,33,35,44]
[7] = Nap-dU at n (6) positions [Nap-dU at 29,36,38,41,44,45,48,57]
[8] = Nap-dU at n (6) positions [8,10-11,13,18-19,24,26,29,36,39]
[9] = Nap-dU at n (6) positions [5,7,9,14,22,24,28,29,30,31,38,40]
[10] = Nap-dU at n (6) positions [5,11,13,19,21,23,28,36,38,42,43,44,45]
[11] = Nap-dU at n (6) positions [12,21,26,30,36,43,44,45,47,56]
[12] = Nap-dU at n (6) positions [13,15-16,18,23-24,29,31,34,41,44]
[13] = Nap-dU at n (6) positions [4,8,14,21-23,25]
[14] = Nap-dU at n (6) positions [Nap-dU at 24,31,33,36,39,40,43,52]
[15] = Nap-dU at n (6) positions [Nap-dU at 16,20,23,28,29,30,31,34,40,41,42,45,54]
[16] = Nap-dU at n (6) positions [Nap-dU at 1,6,7,8,9,12,18,19,20,23]
[17] = Nap-dU at n (6) positions [16,25,27-28,30,35-36,41,43,46,53,56]
[18] = Nap-dU at n (6) positions [8,10-11,13,18-19,24,26,29]
[19] = Nap-dU at n (6) positions [4,9,13,19,26,27,28,30]
[20] = Nap-dU at n (6) positions [5,11,13,19,21,23,28,36,37,39,44,45,50,52,54]
[21] = Nap-dU at n (6) positions [5,11,13,19,21,23,28,36,38,42-45,52,54]
[22] = Nap-dU at n (6) positions [2,4,9,17,19,23,24,25,26,33,35]

PD-L1 (B7-H1) (Homo sapiens), sequence (Q9NZQ7 19-238): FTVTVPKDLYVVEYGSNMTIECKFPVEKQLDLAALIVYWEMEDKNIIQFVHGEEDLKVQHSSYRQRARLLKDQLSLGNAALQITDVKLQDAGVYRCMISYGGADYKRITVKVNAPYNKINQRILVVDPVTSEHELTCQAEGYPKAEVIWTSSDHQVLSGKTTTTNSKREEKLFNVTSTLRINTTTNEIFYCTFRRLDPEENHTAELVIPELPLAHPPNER
CD3 delta/epsilon heterodimer, sequence (P04234 22-105, stated change not applied, chain 1 of 2): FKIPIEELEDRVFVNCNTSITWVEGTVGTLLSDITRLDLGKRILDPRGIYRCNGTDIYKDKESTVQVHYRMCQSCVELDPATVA
CD3 delta/epsilon heterodimer, sequence (P07766 23-126, stated change not applied, chain 2 of 2): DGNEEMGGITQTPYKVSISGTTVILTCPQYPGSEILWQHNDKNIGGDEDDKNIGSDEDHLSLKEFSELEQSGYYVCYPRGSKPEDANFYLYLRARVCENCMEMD
4-1BB (TNFRSF9) (Homo sapiens), sequence (Q07011 24-186): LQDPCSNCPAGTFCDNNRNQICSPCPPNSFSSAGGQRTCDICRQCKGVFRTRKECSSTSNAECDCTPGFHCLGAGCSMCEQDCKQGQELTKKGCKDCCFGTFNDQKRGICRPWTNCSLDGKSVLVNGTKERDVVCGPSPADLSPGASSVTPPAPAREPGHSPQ

Work on “GAGTGACCGTCTGCCTGTCAATCACTGACGAAATGTACTACTTGATAGAGCTAACCTCAGCCACACCACCAGCC [AP027]” yielded a Kd [1, 5] of 354 nM and a Kd [2, 5] of 2.17 nM.

“GCCTGGACTAGCATAAGTCCGGATGGCAGCTTTATGCCGACCATCAGCC [AD004]” showed a Kd (KRAS G12D G12D, P01116-2; [6]) of 16.6 nM and a Kd [2, 6] of 190 nM.

With “GAGTGACCGTCTGCCTGACAACAACGAGTGCGAACTGTACTACTTGATAGAGACCCTC [AP023]” the Kd [1, 7] was 93.2 nM and the Kd [2, 7] was 51.7 nM.

For “CCCCGCCTCTTCTGAAGTTAACATGTGCTCCGAGATGGTA [AD011]”, the Kd (KRAS G12D G12D, P01116-2; [8]) was 9.46 nM and the Kd [2, 8] was 5.46 nM.

In the case of “GAGTGACCGTCTGCCTGACAACAACGAGTGCGAACTGTACTACTTGATAGAGACCCTCAGCCACACCACCAGCC [AP013]”, the Kd [1, 7] is reported as 74 nM and the Kd [2, 7] is reported as 19.1 nM.

With “CGCGTGTGTGACCTGAAGACGTATAACTTTTACAGAATCTACA [AD051]” the Kd (KRAS G12D G12D, P01116-2; [9]) was 514 nM and the Kd [2, 9] was 5.95 nM.

“CAGGTCGAGCTGTACGCGTGTGTGACCTGAAGACGTATAACTTTTACAG [AD046]” was tested, and the Kd (KRAS G12D G12D, P01116-2; [10]) was 5.38 nM and the Kd [2, 10] was 0.65 nM.

For “GAGTGACCGTCTGCCTGGACTAGCATAAGTCCGGATGGCAGCTTTATGCCGACCATCAGCCACACCACCAGCC [AD003]”, the Kd (KRAS G12D G12D, P01116-2; [11]) was 13.8 nM and the Kd [2, 11] was 13 nM.

“GAGTGACCGTCTGCCTGTCTCCAACCTCGCCTTTACAACTATATCTGACGAACTAACACAGCCACACCACCAGCC [AB001]” gave a Kd [3] of 0.04 nM and a Kd ([2]; Nap-dU at n (6) positions [Nap-dU at 16,18,20,27,32,33,34,40,42,44,46,54]) of 8.39 nM.

In the case of “GCCTGCCCCGCCTCTTCTGAAGTTAACATGTGCTCCGAGATGGTACAGCC [AD010]”, the Kd (KRAS G12D G12D, P01116-2; [12]) is reported as 8.18 nM and the Kd [2, 12] is reported as 4.49 nM.

Work on CCTCTTCTGAAGTTAACATGTGCTCC [AD015] yielded a Kd ([2]; Nap-dU at n (6) positions [3,5-6,8,13-14,19,21,24]) of 36.8 nM.

In the case of GCATAAGTCCGGATGGCAGCTTTATGC [AD008], the Kd (KRAS G12D G12D, P01116-2; [13]) is reported as 287 nM and the Kd [2, 13] is reported as 66.9 nM.

In the case of “GAGTGACCGTCTGCCTGGATATGCCTCTTCTGCAGTTACGGTGTGATCGCCCAATAGCAGCCACACCACCAGCC [TD009]”, the Kd (KRAS G12D G12D, P01116-2; Nap-dU at n (6) positions [Nap-dU at 20,22,26,28,29,31,36,37,42,44,47,55]) is reported as 2480 nM.

“ACCGTCTGCCTGACAACAACGAGTGCGAACTGTACTACTTGATAGAGACCCTCAGCCACACCACCAGCC [AP021]” showed a Kd [1, 14] of 130 nM and a Kd [2, 14] of 15.6 nM.

Work on “GAGTGACCGTCTGCCTGGATCCTGCCCTTTTAATCCGACTTTAATGGCCACGCTCACCAGCCACACCACCAGCC [AA001]” yielded a Kd [4, 15] of 3.17 nM and a Kd [2, 15] of 9.62 nM.

TGCCCTTTTAATCCGACTTTAATGGC [AA006] showed a Kd [4, 16] of 14.3 nM and a Kd [2, 16] of 15.5 nM.

“GAGTGACCGTCTGCCTGCCCCGCCTCTTCTGAAGTTAACATGTGCTCCGAGATGGTACAGCCACACCACCAGCC [AD009]” gave a Kd (KRAS G12D G12D, P01116-2; [17]) of 0.51 nM and a Kd [2, 17] of 0.65 nM.

Sequence “CCCCGCCTCTTCTGAAGTTAACATGTGCTCCGAGA [AD012]” has a Kd (KRAS G12D G12D, P01116-2; [18]) of 23.1 nM and a Kd [2, 18] of 28.7 nM.

“GACTAGCATAAGTCCGGATGGCAGCTTTATGCCG [AD006]” gave a Kd (KRAS G12D G12D, P01116-2; [19]) of 77.6 nM and a Kd [2, 19] of 939 nM.

“CAGGTCGAGCTGTACGCGTGTGTGACCTGCCCCACTTCTGACATTAGACTGTGTAGA [AD034]” showed a Kd (KRAS G12D G12D, P01116-2; [20]) of 473 nM and a Kd [2, 20] of 0.59 nM.

In the case of “CAGGTCGAGCTGTACGCGTGTGTGACCTGAAGACGTATAACTTTTACAGAATCTACA [AD032]”, the Kd (KRAS G12D G12D, P01116-2; [21]) is reported as 15.5 nM and the Kd [2, 21] is reported as 0.68 nM.

In the case of “GTGTGACCTGAAGACGTATAACTTTTACAGAATCTACA [AD050]”, the Kd (KRAS G12D G12D, P01116-2; [22]) is reported as 455 nM and the Kd [2, 22] is reported as 5.55 nM.
